Results on one substance are retold here after patent US20170342119A1.

The target of this assay is IL-15 βγ receptors on 32Dβ cells (UniProt P14784). In words: cell-based or functional assay.
Sequence of UniProt P14784 (P14784 27-551, chain 1 of 2): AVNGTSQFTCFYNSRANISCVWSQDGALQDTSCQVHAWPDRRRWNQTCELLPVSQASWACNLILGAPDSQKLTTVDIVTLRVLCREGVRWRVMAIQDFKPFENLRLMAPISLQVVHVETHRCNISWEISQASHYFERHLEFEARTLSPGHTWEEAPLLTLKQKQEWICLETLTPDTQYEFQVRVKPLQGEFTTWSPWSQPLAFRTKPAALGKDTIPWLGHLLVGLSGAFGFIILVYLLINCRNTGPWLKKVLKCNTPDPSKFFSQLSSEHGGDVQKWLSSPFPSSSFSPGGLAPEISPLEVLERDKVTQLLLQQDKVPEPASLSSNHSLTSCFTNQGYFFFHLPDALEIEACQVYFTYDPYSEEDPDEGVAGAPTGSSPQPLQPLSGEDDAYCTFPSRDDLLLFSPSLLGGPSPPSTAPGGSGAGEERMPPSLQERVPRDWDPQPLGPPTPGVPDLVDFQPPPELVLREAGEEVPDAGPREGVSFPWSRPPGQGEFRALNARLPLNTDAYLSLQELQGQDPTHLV
Sequence of UniProt P14784 (P34902 23-369, chain 2 of 2, further chain): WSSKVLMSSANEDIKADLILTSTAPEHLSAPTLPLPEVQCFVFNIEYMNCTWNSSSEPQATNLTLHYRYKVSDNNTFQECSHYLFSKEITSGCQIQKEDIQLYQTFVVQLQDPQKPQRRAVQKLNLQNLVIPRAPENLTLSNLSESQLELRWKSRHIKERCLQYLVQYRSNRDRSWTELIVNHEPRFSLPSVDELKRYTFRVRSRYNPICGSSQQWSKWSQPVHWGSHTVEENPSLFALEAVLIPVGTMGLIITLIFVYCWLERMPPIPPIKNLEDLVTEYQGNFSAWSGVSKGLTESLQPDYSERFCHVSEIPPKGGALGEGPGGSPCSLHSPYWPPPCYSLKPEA

Turning to “IL-15 (from UniProt P40933 49-162) (ligand)”, the 32Dβ cell proliferation (WST-1), EC50 came out at 0.034 nM.
